Source: the Human Domainome abundance scans (Beltran et al. 2025)

B1: Homeobox protein cut-like 2, residues 895 to 963; numbered along this chain, O14529 (parent)
chain: EVDTLELTRQVKEKLAKNGICQRIFGEKVLGLSQGSVSDMLSRPKPWSKLTQKGREPFIRMQLWLSDQL

Variants of: B1
Experiment: abundance fitness (aPCA) (normalised: wild type 0, dead -1); higher = more abundant; growth selection in yeast, the domain comes from the species named
Details: Homo sapiens

Abundance fitness: each site, then its substitutions
Q62: P -0.84
D67: R -0.008; I -0.603; K -0.037; L -0.389; Q 0.057; H -0.296; C -0.576; A -0.207; M -0.25; F -0.64; E -0.017; N -0.07; G 0.009; P -0.209
G54: I 0.046; A 0.084; F -0.048; S -0.092; K -0.461; C -0.007; L -0.011; Y -0.165; H -0.215; D 0.201; M 0.004; P -0.581; T -0.084; W -0.097
T51: K -0.115; D 0.117; V -0.115; Y -0.011; Q -0.247; H -0.235; P -0.355; C -0.375; R -0.109; W -0.033; N -0.082; E -0.403; A -0.1; I -0.007; F -0.005; G -0.145; L -0.082
F58: N -1.1; K -1.11; S -1.11; I -0.596; L -0.274; G -0.888; R -0.906; E -0.763; W -0.111; C -0.845; M -0.502; V -0.662; T -1.11; Y 0.186; A -0.917; Q -1.01
L50: R -1.11; V -0.522; A -0.748; C -0.488; S -0.865; E -1.11; T -0.808; F -0.315; D -0.607; P -1.04; G -0.652; Q -0.874; I -0.437; Y -0.191; W -0.12; K -1.3
Q52: Y -0.073; M -0.106; W -0.187; C -0.038; L -0.025; H -0.218; A 0.042; R 0.015; P 0.01; V -0.034; K 0.094; I -0.06; T 0.046; N -0.215; G -0.18; D 0.017; E -0.016
R55: S -0.559; T -0.359; I -0.684; F -0.569; P -0.814; Y -0.76; V -0.487; D -0.954; H -0.654; Q -0.303; G -0.674; M -0.385; N -0.671; A -0.511; L -0.486; K 0.052; C -0.625
I59: P -0.937; G -0.315; W -0.299; F -0.212; Q 0.031; K 0.079; L -0.011; S -0.118; D -0.535; R 0.113; Y -0.059; H 0.051; A -0.079; M -0.046; C -0.278; T -0.049; N -0.117; E 0.028
K53: H -0.194; L -0.101; S 0.04; T -0.166; I -0.037; C -0.405; D -0.3; M -0.373; E -0.017; W -0.298; A -0.014; Q -0.146; Y -0.061; R -0.09; G -0.309; V -0.259; P -0.282; N -0.233
E56: H -0.446; Y -0.248; S -0.203; I 0.096; A -0.08; M -0.213; D -0.186; C -0.843; K -0.156; L -0.211; V -0.182; W -0.314; N -0.348; T -0.22; P -0.605; G -0.245; Q -0.06; F -0.362; R -0.157
